Measured values as given in US20150080242A1 (UNIVERSITY OF MASSACHUSETTS, published 2015).

B1: OmpG-PEG2-biotin (other)
chain: GEERNDWHFNIGAMYEIENVEGYGEDMDGLAEPSVYFNAANGPWRIALAYYQEGPVDYSAGKRGTWFDRPELEVHYQFLENDDFSFGLTGGFRNYGYHYVDEPGKDTANMQRWKIAPDWDVKLTDDLRFNGWLSMYKFANDLNTTGYADTRVETETGLQYTFNETVALRVNYYLERGFNMDDSRNNGEFSTQEIRAYLPLTLGNHSVTPYTRIGLDRWSNWDWQCDIEREGHDFNRVGLFYGYDFQNGLSVSLEYAFEWQDHDEGDSDKFHYAGVGVNYSF
modifications: maleimide-PEG2-biotin on Cys 224 (D224C, loop 6)
notes: also called OmpG-PEG2-Biotin pore; OmpG-biotin

Columns and labels:
[1] = biological target: OmpG-PEG2-biotin (Escherichia coli) (UniProt P76045); assay: cell-based or functional assay
[2] = biological target: OmpG-PEG2-biotin (Escherichia coli) (UniProt P76045); assay: single channel recording of one OmpG-PEG2-biotin pore, 1 nM mAb
[3] = biological target: OmpG-PEG2-biotin (Escherichia coli) (UniProt P76045); assay: single channel recording of one OmpG-PEG2-biotin pore, from koff and kon
[4] = biological target: OmpG-PEG2-biotin (Escherichia coli) (UniProt P76045); assay: single channel recording of one OmpG-PEG2-biotin pore, inter-event intervals against mAb concentration
[5] = biological target: OmpG-PEG2-biotin (Escherichia coli) (UniProt P76045); assay: single channel recording of one OmpG-PEG2-biotin pore in a planar lipid bilayer, dwell times of binding events
BSA = biological target: T1, BSA (UniProt P02769 25-607); assay: single channel recording in planar lipid bilayer
T1 construct: Control protein
T1 sequence (P02769 25-607 limits assumed): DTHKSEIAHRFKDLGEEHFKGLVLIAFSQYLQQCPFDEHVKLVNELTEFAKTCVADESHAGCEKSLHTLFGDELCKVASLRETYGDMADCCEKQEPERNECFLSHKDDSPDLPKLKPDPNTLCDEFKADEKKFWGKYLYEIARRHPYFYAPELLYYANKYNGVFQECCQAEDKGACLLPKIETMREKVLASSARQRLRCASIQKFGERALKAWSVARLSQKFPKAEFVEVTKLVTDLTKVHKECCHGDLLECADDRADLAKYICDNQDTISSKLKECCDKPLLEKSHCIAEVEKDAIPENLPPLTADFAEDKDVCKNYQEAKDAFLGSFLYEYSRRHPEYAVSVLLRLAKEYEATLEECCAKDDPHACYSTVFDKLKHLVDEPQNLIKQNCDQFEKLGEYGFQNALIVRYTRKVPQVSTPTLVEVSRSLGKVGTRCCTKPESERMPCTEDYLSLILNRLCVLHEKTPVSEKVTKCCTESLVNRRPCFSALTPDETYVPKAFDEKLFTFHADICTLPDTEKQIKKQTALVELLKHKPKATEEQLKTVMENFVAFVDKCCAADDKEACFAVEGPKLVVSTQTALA

| Molecule | Event frequency [1] [s⁻¹] | Gating duration [1] [s] | Inter-event duration [1] [s] | Open probability [1] | Relative conductance of open state (%) [1] [%] | open probability of the mAb bound state at -50 mV [1] | mean inter-event interval at 1 nM mAb [2] [s] | Kd [3] [nM] | kon [4] [M⁻¹ s⁻¹] | koff [5] [s⁻¹] | binding result (BSA) |
| --- | --- | --- | --- | --- | --- | --- | --- | --- | --- | --- | --- |
| Mouse anti-biotin monoclonal antibody (MS-1048-P1, Thermo Scientific) | 201 | 4.2 | 3.67 | 0.52 | 86.4 | 0.4 | 74.5 | 11.2 | 2.3e+07 | 0.25 | – |
| B1 | – | – | – | – | – | – | – | – | – | – | no binding (tested: 1 µM) |
